Assay results as given in the supplement of paper PMC10266784.

B1: library; numbered along this chain (parent)
chain: MAAAAAAAAEQQSSNGPVKKSMREKAVERRSVNKEHNSNFKAGYIPIDEDRLHKTGLRGRKGNLAICVIILLFILAVINLIITLVIWAVIRIGPNGCDSMEFHESGLLRFKQVSDMGVIHPLYKSTVGGRRNENLVITGNNQPIVFQQGTTKLSVENNKTSITSDIGMQFFDPRTQNILFSTDYETHEFHLPSGVKSLNVQKASTERITSNATSDLNIKVDGRAIVRGNEGVFIMGKTIEFHMGGNMELKAENSIILNGSVMVSTTRLPSSSSGDQLGSGDWVRYKLCMCADGTLFKVQVTSQNMGCQISDNPCGNTH

Variants of: B1
Assay: SGCB cell-surface expression functional score (HA stain, bin4 vs bin1, normalised to synonymous) (log10 ratio); higher = more cell-surface SGCB (functional)
Procedure, shortened: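 Codon-saturation libraries of HA-tagged, YFP-fused human beta-sarcoglycan were lentivirally transduced at MOI <0.1 into HEK293 cells stably expressing alpha-, gamma- and delta-sarcoglycan. YFP-positive cells were sorted after 72 hours, grown 5–7 days, stained on ice with Alexa Fluor 647 anti-HA, fixed, sorted into four 5% intensity bins and amplicon-sequenced. The functional score is the log ratio of highest-bin to lowest-bin variant frequency, taken as the median over codons and duplicate transductions. Synonymous variants were scaled per section to mean 0, SD 0.5.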

| Variant | SGCB cell-surface expression functional score (log10) |
| --- | --- |
| MAAAAAAAAEQQSSNGPVKKSMREKAVERRSVNKEHNSNFKAGYIPIDEDRLHKTGLRGRKGNLAICVIILLFILAVINLIITLVIWAVIRIGPNGCDSMEFHESGLLRFKQVSDMGVIHPLYKSTVGGRRNENLVITGNNQPIVFQQGTTKLSVENNKTSITSDIGMQFFDPRTQNILFSTDYETHEFHLPSGVKSLNVQKASTERITSMATSDLNIKVDGRAIVRGNEGVFIMGKTIEFHMGGNMELKAENSIILNGSVMVSTTRLPSSSSGDQLGSGDWVRYKLCMCADGTLFKVQVTSQNMGCQISDNPCGNTH [N211M] | 0.07 |
| MAAAAAAAAEQQSSNGPVKKSMREKAVERRSVNKEHNSNFKAGYIPIDEDRLHKTGLRGRKGNLAICVIILLFILAVINLIITLVIWAVIRIGPNGCDSMEFHESGLLRFKQVSDMGVIHPLYKSTVGGRRNENLVITGNNQPIVFQQGTTKLSVENNKTSITSDIGMQFFDPRTQNILFSTDYETHEFHLPSGVKSLNVQKASTERITSGATSDLNIKVDGRAIVRGNEGVFIMGKTIEFHMGGNMELKAENSIILNGSVMVSTTRLPSSSSGDQLGSGDWVRYKLCMCADGTLFKVQVTSQNMGCQISDNPCGNTH [N211G] | -3.64 |
| MAAAAAAAAEQQSSNGPVKKSMREKAVERRSVNKEHNSNFKAGYIPIDEDRLHKTGLRGRKGNLAICVIILLFILAVINLIITLVIWAVIRIGPNGCDSMEFHESGLLRFKQVSDMGVIHPLYKSTVGGRRNENLVITGNNQPIVFQQGTTKLSVENNKTSITSDIGMQFFDPRTQNILFSTDYETHEFHLPSGVKSLNVQKASTERITSCATSDLNIKVDGRAIVRGNEGVFIMGKTIEFHMGGNMELKAENSIILNGSVMVSTTRLPSSSSGDQLGSGDWVRYKLCMCADGTLFKVQVTSQNMGCQISDNPCGNTH [N211C] | -1.44 |
| MAAAAAAAAEQQSSNGPVKKSMREKAVERRSVNKEHNSNFKAGYIPIDEDRLHKTGLRGRKGNLAICVIILLFILAVINLIITLVIWAVIRIGPNGCDSMEFHESGLLRFKQVSDMGVIHPLYKSTVGGRRNENLVITGNNQPIVFQQGTTKLSVENNKTSITSDIGMQFFDPRTQNILFSTDYETHEFHLPSGVKSLNVQKASTERITSKATSDLNIKVDGRAIVRGNEGVFIMGKTIEFHMGGNMELKAENSIILNGSVMVSTTRLPSSSSGDQLGSGDWVRYKLCMCADGTLFKVQVTSQNMGCQISDNPCGNTH [N211K] | 0.09 |
| MAAAAAAAAEQQSSNGPVKKSMREKAVERRSVNKEHNSNFKAGYIPIDEDRLHKTGLRGRKGNLAICVIILLFILAVINLIITLVIWAVIRIGPNGCDSMEFHESGLLRFKQVSDMGVIHPLYKSTVGGRRNENLVITGNNQPIVFQQGTTKLSVENNKTSITSDIGMQFFDPRTQNILFSTDYETHEFHLPSGVKSLNVQKASTERITSPATSDLNIKVDGRAIVRGNEGVFIMGKTIEFHMGGNMELKAENSIILNGSVMVSTTRLPSSSSGDQLGSGDWVRYKLCMCADGTLFKVQVTSQNMGCQISDNPCGNTH [N211P] | -0.12 |
| MAAAAAAAAEQQSSNGPVKKSMREKAVERRSVNKEHNSNFKAGYIPIDEDRLHKTGLRGRKGNLAICVIILLFILAVINLIITLVIWAVIRIGPNGCDSMEFHESGLLRFKQVSDMGVIHPLYKSTVGGRRNENLVITGNNQPIVFQQGTTKLSVENNKTSITSDIGMQFFDPRTQNILFSTDYETHEFHLPSGVKSLNVQKASTERITSEATSDLNIKVDGRAIVRGNEGVFIMGKTIEFHMGGNMELKAENSIILNGSVMVSTTRLPSSSSGDQLGSGDWVRYKLCMCADGTLFKVQVTSQNMGCQISDNPCGNTH [N211E] | 0.12 |
| MAAAAAAAAEQQSSNGPVKKSMREKAVERRSVNKEHNSNFKAGYIPIDEDRLHKTGLRGRKGNLAICVIILLFILAVINLIITLVIWAVIRIGPNGCDSMEFHESGLLRFKQVSDMGVIHPLYKSTVGGRRNENLVITGNNQPIVFQQGTTKLSVENNKTSITSDIGMQFFDPRTQNILFSTDYETHEFHLPSGVKSLNVQKASTERITSLATSDLNIKVDGRAIVRGNEGVFIMGKTIEFHMGGNMELKAENSIILNGSVMVSTTRLPSSSSGDQLGSGDWVRYKLCMCADGTLFKVQVTSQNMGCQISDNPCGNTH [N211L] | -0.58 |
| MAAAAAAAAEQQSSNGPVKKSMREKAVERRSVNKEHNSNFKAGYIPIDEDRLHKTGLRGRKGNLAICVIILLFILAVINLIITLVIWAVIRIGPNGCDSMEFHESGLLRFKQVSDMGVIHPLYKSTVGGRRNENLVITGNNQPIVFQQGTTKLSVENNKTSITSDIGMQFFDPRTQNILFSTDYETHEFHLPSGVKSLNVQKASTERITYNATSDLNIKVDGRAIVRGNEGVFIMGKTIEFHMGGNMELKAENSIILNGSVMVSTTRLPSSSSGDQLGSGDWVRYKLCMCADGTLFKVQVTSQNMGCQISDNPCGNTH [S210Y] | -2.28 |
| MAAAAAAAAEQQSSNGPVKKSMREKAVERRSVNKEHNSNFKAGYIPIDEDRLHKTGLRGRKGNLAICVIILLFILAVINLIITLVIWAVIRIGPNGCDSMEFHESGLLRFKQVSDMGVIHPLYKSTVGGRRNENLVITGNNQPIVFQQGTTKLSVENNKTSITSDIGMQFFDPRTQNILFSTDYETHEFHLPSGVKSLNVQKASTERITVNATSDLNIKVDGRAIVRGNEGVFIMGKTIEFHMGGNMELKAENSIILNGSVMVSTTRLPSSSSGDQLGSGDWVRYKLCMCADGTLFKVQVTSQNMGCQISDNPCGNTH [S210V] | -1.36 |
| MAAAAAAAAEQQSSNGPVKKSMREKAVERRSVNKEHNSNFKAGYIPIDEDRLHKTGLRGRKGNLAICVIILLFILAVINLIITLVIWAVIRIGPNGCDSMEFHESGLLRFKQVSDMGVIHPLYKSTVGGRRNENLVITGNNQPIVFQQGTTKLSVENNKTSITSDIGMQFFDPRTQNILFSTDYETHEFHLPSGVKSLNVQKASTERITWNATSDLNIKVDGRAIVRGNEGVFIMGKTIEFHMGGNMELKAENSIILNGSVMVSTTRLPSSSSGDQLGSGDWVRYKLCMCADGTLFKVQVTSQNMGCQISDNPCGNTH [S210W] | -1.35 |
